We go through one molecule from patent US11840557B2, “Wnt7 variants capable of activating g-protein coupled receptor (Gpr)124/Reck/frizzled/lipoprotein receptor-related protein (LRP)-mediated Wnt signaling” (UNIVERSITÉ LIBRE DE BRUXELLES, priority 2018, dated 2023).

Data set [1] concerns the target T1, Gpr124/Reck/Fz/LRP (UniProt O70421+O95980).
T1 construct: host or cells: HEK293-STF cells
The experiment in a line: STF dual luciferase assay, Gpr124/Reck-dependent signaling in HEK293-STF cells. The format is cell-based. Conditions: Gpr124, RECK and Fz1 transfection. Here is the method: Cells were plated into 96-well plates and transfected after 24 h in triplicate with Lipofectamine 2000 (Life Technologies, Carlsbad, Calif.). The amount of plasmid DNA transfected per well was optimized for each expression vector: Renilla luciferase (0.5 ng) (was kindly provided by Jeremy Nathans (John Hopkins)), Wnt ligands (20 ng), Fz receptors (5 ng), Lrp (2.5 ng), Gpr124 (10 ng), Reck (5 ng) and Dkk-1 (10 ng) unless otherwise indicated. The total amount of DNA was adjusted to 100 ng per well with the empty pCS2 vector. Dual luciferase assays were performed using the STF cell line or by co-transfecting 20 ng of M50 Super 8× TOPFlash plasmid (Addgene plasmid #12456). Cells were harvested in passive lysis buffer (E1960, Promega, Wis.) and the activities of the Firefly and Renilla luciferases were measured sequentially using the Dual-Luciferase Reporter Assay system (E1960, Promega, Madison, Wis.) 48 h post-transfection. […] Luciferase activity was measured 24 h after co-culture.
Cells were plated into 96-well plates and transfected after 24 h in triplicate with Lipofectamine 2000 (Invitrogen, Carlsbad, Calif.). […] Cells were harvested in passive lysis buffer (E1960, Promega, Wisconsin) and the activities of the Firefly and Renilla luciferases were measured sequentially using the Dual-Luciferase Reporter Assay system (E1960, Promega, Madison, Wis.) 48 h post-transfection.

The test system of data set [2] is zebrafish zygote. The format is in vivo, Danio rerio. Conditions: injection in zygote, 3 dpf larvae. The method, then:
The following splice-blocking morpholino (MOs) (GeneTools, Eugene, OR) were injected into embryos at the one-cell stage: wnt7aa ([…], 6 ng) (SEQ ID NO.: 123). Synthetic mRNAs were transcribed from pCS2 plasmids after NotI digestion using the mMessage mMachine SP6 Kit (Ambion, Carlsbad, CA) and injected into one-cell stage zebrafish embryo. For Xenopus laevis microinjection, 15 pg of wnt7a or wnt7a^K190A or wnt7a^1-278 mRNA were injected into one ventral blastomere of the four-cell stage embryo.
zebrafish embryos were imaged with an LSM710 confocal microscope and images were processed in ImageJ. Images of zebrafish development phenotypes were taken on Leica M165 FC. Xenopus larvae were imaged with an Olympus SZX16.

T1 sequence (O95980 23-942 limits assumed): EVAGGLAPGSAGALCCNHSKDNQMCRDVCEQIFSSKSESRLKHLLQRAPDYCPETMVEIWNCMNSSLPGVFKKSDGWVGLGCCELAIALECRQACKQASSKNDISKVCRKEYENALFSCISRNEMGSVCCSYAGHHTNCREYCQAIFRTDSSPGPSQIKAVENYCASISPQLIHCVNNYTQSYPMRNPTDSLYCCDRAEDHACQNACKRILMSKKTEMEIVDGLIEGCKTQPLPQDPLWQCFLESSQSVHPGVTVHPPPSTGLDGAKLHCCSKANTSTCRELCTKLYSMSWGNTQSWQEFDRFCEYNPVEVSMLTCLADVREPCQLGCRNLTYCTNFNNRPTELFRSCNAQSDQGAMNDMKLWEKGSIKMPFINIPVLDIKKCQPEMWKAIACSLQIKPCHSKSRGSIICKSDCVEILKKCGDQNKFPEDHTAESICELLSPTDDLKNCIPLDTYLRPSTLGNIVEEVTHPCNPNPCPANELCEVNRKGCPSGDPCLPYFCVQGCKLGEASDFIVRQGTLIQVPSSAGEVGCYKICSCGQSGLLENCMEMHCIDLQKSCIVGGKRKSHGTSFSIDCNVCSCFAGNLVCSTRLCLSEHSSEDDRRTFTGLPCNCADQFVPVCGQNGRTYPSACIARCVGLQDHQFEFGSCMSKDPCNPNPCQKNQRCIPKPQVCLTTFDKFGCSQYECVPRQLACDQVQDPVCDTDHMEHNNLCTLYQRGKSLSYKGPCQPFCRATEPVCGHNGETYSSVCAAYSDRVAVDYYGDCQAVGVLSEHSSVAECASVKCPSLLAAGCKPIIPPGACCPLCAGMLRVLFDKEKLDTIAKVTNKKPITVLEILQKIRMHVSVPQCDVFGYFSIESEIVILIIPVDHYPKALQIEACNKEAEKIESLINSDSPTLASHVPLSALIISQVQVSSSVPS
T1 sequence (O70421 69-642): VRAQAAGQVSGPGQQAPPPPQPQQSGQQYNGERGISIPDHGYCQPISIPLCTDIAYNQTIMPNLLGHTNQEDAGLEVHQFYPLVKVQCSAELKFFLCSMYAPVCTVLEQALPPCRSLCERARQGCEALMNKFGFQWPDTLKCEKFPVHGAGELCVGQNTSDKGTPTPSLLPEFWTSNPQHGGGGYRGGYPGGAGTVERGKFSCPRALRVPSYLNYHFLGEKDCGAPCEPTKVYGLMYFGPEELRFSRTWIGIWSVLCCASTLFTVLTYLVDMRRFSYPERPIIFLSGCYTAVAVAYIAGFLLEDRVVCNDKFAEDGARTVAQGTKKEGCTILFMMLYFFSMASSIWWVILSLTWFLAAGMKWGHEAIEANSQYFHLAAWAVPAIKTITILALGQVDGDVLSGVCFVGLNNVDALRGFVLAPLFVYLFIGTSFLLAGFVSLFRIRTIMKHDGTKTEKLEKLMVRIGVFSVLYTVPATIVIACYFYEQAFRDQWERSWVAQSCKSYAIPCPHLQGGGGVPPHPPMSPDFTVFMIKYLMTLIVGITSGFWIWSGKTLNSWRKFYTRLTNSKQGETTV
T1 sequence (Q96PE1 34-1338 partner): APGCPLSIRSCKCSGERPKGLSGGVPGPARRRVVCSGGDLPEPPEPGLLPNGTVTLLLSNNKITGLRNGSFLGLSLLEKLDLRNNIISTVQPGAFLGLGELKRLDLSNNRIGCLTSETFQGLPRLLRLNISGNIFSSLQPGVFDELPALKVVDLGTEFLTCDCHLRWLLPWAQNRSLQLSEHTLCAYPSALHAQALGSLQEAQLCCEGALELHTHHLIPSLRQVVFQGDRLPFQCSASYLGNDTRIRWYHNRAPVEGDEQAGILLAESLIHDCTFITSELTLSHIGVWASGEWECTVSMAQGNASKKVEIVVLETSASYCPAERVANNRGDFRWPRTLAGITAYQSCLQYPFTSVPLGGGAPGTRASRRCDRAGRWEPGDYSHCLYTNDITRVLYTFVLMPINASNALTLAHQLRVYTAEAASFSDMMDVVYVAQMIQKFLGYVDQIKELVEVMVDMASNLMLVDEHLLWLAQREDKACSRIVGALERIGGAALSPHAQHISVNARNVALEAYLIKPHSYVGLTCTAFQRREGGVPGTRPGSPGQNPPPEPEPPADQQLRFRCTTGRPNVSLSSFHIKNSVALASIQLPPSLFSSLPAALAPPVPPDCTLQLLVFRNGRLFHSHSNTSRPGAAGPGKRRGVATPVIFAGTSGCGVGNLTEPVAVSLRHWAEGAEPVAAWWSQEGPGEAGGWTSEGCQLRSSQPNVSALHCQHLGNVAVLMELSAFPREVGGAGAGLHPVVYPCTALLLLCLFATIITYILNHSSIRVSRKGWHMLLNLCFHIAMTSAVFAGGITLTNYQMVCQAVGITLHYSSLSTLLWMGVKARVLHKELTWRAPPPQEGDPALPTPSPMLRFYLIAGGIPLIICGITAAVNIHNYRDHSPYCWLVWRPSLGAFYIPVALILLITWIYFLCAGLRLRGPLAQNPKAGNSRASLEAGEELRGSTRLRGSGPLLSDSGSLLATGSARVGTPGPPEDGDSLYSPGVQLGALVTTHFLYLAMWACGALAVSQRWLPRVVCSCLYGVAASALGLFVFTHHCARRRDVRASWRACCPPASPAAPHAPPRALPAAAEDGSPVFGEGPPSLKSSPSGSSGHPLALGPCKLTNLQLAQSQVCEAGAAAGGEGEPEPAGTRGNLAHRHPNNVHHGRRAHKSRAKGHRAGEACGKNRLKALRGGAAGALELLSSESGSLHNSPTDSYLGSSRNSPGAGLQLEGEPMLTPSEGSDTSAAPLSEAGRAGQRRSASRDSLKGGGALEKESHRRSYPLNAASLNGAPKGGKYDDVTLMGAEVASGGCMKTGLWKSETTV
T1 sequence (O75581 20-1613 partner): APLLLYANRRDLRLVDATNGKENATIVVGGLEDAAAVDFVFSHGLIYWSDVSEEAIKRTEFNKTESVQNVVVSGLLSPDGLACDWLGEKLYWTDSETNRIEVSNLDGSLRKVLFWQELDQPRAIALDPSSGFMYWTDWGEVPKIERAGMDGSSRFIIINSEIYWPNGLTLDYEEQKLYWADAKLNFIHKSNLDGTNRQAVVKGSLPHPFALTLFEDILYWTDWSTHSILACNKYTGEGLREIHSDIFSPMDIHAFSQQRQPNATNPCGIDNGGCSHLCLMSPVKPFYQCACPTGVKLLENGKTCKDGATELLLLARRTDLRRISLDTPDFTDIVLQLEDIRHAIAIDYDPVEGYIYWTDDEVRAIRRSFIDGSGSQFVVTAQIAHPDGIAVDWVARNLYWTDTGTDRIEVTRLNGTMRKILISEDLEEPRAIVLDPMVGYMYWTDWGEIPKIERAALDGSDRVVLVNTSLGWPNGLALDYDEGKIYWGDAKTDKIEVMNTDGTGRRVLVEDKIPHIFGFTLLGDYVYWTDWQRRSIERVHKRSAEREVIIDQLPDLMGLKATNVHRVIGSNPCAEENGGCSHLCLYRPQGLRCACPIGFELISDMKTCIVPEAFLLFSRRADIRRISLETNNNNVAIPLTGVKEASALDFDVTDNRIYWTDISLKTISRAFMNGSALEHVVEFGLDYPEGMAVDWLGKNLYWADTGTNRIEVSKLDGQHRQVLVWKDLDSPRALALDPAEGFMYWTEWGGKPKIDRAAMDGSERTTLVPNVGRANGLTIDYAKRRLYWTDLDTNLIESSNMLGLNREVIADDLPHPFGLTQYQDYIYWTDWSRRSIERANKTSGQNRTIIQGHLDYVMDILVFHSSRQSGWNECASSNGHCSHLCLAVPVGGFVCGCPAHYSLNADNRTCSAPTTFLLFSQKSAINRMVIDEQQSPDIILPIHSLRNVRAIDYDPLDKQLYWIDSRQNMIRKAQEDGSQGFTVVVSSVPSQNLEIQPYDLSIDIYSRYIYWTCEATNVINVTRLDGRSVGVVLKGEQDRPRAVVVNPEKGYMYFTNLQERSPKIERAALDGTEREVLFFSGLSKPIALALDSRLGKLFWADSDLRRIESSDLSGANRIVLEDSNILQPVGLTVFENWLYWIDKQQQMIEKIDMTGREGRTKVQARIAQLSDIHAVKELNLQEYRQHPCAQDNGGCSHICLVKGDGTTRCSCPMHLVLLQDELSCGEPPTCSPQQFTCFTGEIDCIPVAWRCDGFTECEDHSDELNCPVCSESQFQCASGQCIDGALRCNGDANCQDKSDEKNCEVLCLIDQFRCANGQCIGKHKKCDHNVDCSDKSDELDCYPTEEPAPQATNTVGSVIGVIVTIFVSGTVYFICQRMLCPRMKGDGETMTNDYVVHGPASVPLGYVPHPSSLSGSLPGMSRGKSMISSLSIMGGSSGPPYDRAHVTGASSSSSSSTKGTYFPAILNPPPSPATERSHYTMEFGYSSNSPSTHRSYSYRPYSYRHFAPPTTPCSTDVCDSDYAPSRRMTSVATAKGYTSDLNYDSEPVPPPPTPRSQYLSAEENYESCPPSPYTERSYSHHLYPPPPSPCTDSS

B1: Wnt7a^1-278: the N-terminal domain of Wnt7a, single domain truncated variant (protein)
chain: LGASIICNKIPGLAPRQRAICQSRPDAIIVIGEGSQMGLDECQFQFRNGRWNCSALGERTVFGKELKVGSREAAFTYAIIAAGVAHAITAACTQGNLSDCGCDKEKQGQYHRDEGWKWGGCSADIRYGIGFAKVFVDAREIKQNARTLMNLHNNEAGRKILEENMKLECKCHGVSGSCTTKTCWTTLPQFRELGYVLKDKYNEAVHVEPVRASRNKRPTFLKIKKPLSYRKPMDTDLVYIEKSPNYC
modifications: left off: small tags and cut ends
notes: the N-terminal domain of Wnt7a, single domain truncated variant
With B1, the “signaling capacity via Gpr124/Reck/Fz1” value in data set [1] was about 40%. Besides, the “mRNA dose well tolerated without posteriorizing or gross anatomical alterations” value in data set [2] was “up to 1 ng”.
